{
  "source": "patent US10206975",
  "about": "(dated 2019)",
  "binders": {"B1": {"name": "OmCI (protein)", "chain": "MDSESDCTGSEPVDAFQAFSEGKEAYVLVRSTDPKARDCLKGEPAGEKQDNTLPVMMTFKNGTDWASTDWTFTLDGAKVTATLGNLTQNREVVYDSQSHHCHVDKVEKEVPDYEMWMLDAGGLEVEVECCRQKLEELASGRNQMYPHLKDCGGGGSENLYFQGSHHHHHH"}, "B2": {"name": "Z06175a-GS-ABD094-GS(G4S)2-Z06175a (designed binder)", "chain 1": "not shown", "chain 2": "LAEAKEAANAELDSYGVSDFYKRLIDKAKTVEGVEALKDAILAALP", "chain 3": "not shown"}, "B3": {"name": "Z06175a-GS(G4S)2-ABD094 (designed binder)", "chain 1": "not shown", "chain 2": "B2 chain 2"}, "B4": {"name": "Z(748)-GS-ABD094 (Z06009a) (designed binder)", "chain 1": "not shown", "chain 2": "B2 chain 2"}, "B5": {"name": "Z06175a-GS-ABD094 (designed binder)", "chain 1": "not shown", "chain 2": "B2 chain 2"}, "B6": {"name": "Z(757)-GS-ABD094 (designed binder)", "chain 1": "not shown", "chain 2": "B2 chain 2"}, "B7": {"name": "Z05477a-GS-ABD094 (designed binder)", "chain 1": "not shown", "chain 2": "B2 chain 2"}, "B8": {"name": "SULFO-TAG Z(748)-GS-ABD094 (designed binder)", "chain 1": "not shown", "chain 2": "B2 chain 2"}, "B9": {"name": "Z(756)-GS-ABD094 (designed binder)", "chain 1": "not shown", "chain 2": "B2 chain 2"}, "B10": {"name": "Z06175a-Z06175a-GS(G4S)2-ABD094 (designed binder)", "chain 1": "not shown", "chain 2": "not shown", "chain 3": "B2 chain 2"}, "B11": {"name": "Z(755)-GS-ABD094 (designed binder)", "chain 1": "not shown", "chain 2": "B2 chain 2"}, "B12": {"name": "Z(754)-GS-ABD094 (designed binder)", "chain 1": "not shown", "chain 2": "B2 chain 2"}, "B13": {"name": "Z(751)-GS-ABD094 (designed binder)", "chain 1": "not shown", "chain 2": "B2 chain 2"}, "B14": {"name": "Z(750)-GS-ABD094 (designed binder)", "chain 1": "not shown", "chain 2": "B2 chain 2"}, "B15": {"name": "Z06175a-Z06175a-GS-ABD094 (designed binder)", "chain 1": "not shown", "chain 2": "not shown", "chain 3": "B2 chain 2"}, "B16": {"name": "Z(752)-GS-ABD094 (designed binder)", "chain 1": "not shown", "chain 2": "B2 chain 2"}, "B17": {"name": "ABD094-Z06175a (N-terminal ABD) (designed binder)", "chain 1": "B2 chain 2", "chain 2": "not shown"}, "B18": {"name": "Z(749)-GS-ABD094 (designed binder)", "chain 1": "not shown", "chain 2": "B2 chain 2"}},
  "key": {"human complement C5 [1]": {"target": "human complement C5 (human)", "assay": "competition, ECL"}, "human complement C5 [2]": {"target": "human complement C5 (human)", "assay": "SPR, without albumin"}, "human serum albumin [3]": {"target": "T1, human serum albumin (human, UniProt P02768)", "assay": "SPR"}, "human complement C5 [4]": {"target": "human complement C5 (human)", "assay": "SPR, with human albumin"}, "human complement C5 [5]": {"target": "human complement C5 (human)", "assay": "SPR"}, "human complement C4": {"target": "T2, human complement C4 (human)", "T2 chain 1": "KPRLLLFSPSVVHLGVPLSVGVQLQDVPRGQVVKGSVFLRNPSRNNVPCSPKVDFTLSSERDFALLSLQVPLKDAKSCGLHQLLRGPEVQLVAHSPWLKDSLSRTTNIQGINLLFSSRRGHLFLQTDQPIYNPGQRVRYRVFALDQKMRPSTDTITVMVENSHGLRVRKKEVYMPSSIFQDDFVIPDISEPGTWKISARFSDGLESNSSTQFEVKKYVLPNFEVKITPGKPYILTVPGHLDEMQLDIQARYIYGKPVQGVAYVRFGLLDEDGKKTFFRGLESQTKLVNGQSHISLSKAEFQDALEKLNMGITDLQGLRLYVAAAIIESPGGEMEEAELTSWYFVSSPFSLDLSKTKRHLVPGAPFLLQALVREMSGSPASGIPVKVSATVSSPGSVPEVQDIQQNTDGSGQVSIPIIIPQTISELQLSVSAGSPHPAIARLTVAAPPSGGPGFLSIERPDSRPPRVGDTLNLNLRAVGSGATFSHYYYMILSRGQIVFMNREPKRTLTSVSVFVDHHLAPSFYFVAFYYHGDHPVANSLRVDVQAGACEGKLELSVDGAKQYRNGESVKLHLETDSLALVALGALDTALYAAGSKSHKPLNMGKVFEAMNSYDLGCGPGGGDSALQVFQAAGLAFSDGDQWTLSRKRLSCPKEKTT", "T2 chain 2": "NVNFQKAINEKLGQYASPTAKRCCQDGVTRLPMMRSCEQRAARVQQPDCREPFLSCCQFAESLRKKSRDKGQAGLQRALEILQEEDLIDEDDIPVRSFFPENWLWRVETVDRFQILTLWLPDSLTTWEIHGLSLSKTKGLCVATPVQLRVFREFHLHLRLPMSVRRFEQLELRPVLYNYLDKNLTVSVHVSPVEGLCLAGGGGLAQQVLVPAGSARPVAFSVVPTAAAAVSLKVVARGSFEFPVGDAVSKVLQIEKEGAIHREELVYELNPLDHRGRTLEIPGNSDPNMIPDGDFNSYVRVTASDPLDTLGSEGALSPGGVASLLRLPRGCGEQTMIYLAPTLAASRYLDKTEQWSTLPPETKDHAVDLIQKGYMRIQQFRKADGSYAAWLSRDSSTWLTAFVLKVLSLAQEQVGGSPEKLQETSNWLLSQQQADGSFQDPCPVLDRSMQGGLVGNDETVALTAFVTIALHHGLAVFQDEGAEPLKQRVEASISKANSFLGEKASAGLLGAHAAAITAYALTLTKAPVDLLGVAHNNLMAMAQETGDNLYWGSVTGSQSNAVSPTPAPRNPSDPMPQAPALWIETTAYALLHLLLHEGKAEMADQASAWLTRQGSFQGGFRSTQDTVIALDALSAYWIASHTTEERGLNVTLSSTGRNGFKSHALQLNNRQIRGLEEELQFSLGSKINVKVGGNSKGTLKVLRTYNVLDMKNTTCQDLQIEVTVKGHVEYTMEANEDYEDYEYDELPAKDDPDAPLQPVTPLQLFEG", "T2 chain 3": "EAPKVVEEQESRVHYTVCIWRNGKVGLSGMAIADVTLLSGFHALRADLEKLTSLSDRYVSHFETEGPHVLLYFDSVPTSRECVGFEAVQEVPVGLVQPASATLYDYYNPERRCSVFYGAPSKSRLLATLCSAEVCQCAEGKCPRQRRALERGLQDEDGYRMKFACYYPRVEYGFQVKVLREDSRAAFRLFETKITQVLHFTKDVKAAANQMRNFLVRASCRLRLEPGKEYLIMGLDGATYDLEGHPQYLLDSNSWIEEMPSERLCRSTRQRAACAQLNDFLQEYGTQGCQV", "assay": "SPR, 40 and 400 nM"}, "human complement C3": {"target": "human complement C3 (human, UniProt P01024)", "assay": "SPR, 40 and 400 nM"}, "mouse serum albumin": {"target": "mouse serum albumin (mouse, UniProt P07724)", "sequence (P07724 25-608)": "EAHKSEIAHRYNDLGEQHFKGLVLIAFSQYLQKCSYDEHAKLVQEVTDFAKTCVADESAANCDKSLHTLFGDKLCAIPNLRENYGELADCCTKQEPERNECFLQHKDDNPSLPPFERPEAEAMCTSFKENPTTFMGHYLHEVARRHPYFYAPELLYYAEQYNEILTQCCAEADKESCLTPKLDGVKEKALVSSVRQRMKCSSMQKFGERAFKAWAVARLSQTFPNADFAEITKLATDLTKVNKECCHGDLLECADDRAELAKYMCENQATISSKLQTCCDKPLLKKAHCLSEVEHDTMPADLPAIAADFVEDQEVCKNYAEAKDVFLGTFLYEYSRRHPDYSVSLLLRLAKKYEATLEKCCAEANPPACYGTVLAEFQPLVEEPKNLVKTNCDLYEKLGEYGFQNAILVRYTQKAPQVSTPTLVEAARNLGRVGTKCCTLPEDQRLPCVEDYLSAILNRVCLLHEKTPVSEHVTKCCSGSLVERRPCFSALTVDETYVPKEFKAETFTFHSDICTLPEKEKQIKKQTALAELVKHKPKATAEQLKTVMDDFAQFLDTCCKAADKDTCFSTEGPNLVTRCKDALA", "assay": "SPR"}, "rat serum albumin": {"target": "T3, rat serum albumin (rat, UniProt P02770)", "T3 chain": "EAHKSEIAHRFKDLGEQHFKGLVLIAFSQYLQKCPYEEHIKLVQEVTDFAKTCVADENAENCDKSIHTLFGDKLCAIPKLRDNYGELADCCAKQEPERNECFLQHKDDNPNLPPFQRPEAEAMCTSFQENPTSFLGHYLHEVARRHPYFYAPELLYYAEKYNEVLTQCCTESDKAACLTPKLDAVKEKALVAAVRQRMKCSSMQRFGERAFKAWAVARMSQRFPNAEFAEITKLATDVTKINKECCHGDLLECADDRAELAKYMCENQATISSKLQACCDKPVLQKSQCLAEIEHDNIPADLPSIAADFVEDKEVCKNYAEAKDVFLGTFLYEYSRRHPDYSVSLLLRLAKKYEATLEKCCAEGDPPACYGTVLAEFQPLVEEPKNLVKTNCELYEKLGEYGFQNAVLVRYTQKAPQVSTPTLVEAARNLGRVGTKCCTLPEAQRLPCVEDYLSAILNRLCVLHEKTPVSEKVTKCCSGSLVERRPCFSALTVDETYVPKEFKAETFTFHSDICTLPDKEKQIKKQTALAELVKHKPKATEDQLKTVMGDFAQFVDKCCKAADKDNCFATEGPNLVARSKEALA", "assay": "SPR"}, "human serum albumin [6]": {"target": "T1, human serum albumin", "assay": "SPR, 25C"}, "bovine serum albumin": {"target": "bovine serum albumin (bovine, UniProt P02769)", "sequence (P02769 25-607)": "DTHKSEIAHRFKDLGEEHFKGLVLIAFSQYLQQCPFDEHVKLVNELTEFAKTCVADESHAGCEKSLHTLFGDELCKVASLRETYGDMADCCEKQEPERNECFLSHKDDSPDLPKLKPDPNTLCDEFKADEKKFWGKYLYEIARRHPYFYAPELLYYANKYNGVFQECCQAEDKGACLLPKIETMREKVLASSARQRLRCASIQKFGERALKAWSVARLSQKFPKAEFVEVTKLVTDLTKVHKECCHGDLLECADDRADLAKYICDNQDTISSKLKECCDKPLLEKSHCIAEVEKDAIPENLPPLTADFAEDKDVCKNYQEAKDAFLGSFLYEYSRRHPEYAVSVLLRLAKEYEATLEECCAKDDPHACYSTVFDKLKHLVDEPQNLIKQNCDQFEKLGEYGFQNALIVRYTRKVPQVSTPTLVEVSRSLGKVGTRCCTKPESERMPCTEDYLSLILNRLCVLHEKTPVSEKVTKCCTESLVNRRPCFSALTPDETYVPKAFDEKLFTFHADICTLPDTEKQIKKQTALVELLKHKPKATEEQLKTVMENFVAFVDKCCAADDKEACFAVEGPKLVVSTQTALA", "assay": "SPR"}, "human complement C5 [7]": {"target": "human complement C5 (human)", "assay": "other, ECL saturation binding"}},
  "data": [
    {"binder": "B1", "values": [
      {"measurement": "IC50", "setting": "human complement C5 [1]", "result": 1.5, "unit": "nM"}
    ]},
    {"binder": "B2", "values": [
      {"measurement": "Kd", "setting": "human complement C5 [2]", "result": 0.662, "unit": "nM"},
      {"measurement": "Kd", "setting": "human serum albumin [3]", "result": "> 1", "unit": "nM"},
      {"measurement": "Kd", "setting": "human complement C5 [4]", "result": 0.586, "unit": "nM"}
    ]},
    {"binder": "B3", "values": [
      {"measurement": "Kd", "setting": "human complement C5 [2]", "result": 3.75, "unit": "nM"}
    ]},
    {"binder": "B4", "values": [
      {"measurement": "Kd", "setting": "human complement C5 [5]", "result": 1.31, "unit": "nM"},
      {"measurement": "binding result", "setting": "human complement C4", "result": "no binding"},
      {"measurement": "binding result", "setting": "human complement C3", "result": "no binding"}
    ]},
    {"binder": "B5", "values": [
      {"measurement": "Kd", "setting": "mouse serum albumin", "result": "~4", "unit": "nM"},
      {"measurement": "Kd", "setting": "human complement C5 [2]", "result": 1.43, "unit": "nM"},
      {"measurement": "Kd", "setting": "rat serum albumin", "result": "< 0.1", "unit": "nM"},
      {"measurement": "Kd", "setting": "human serum albumin [6]", "result": "< 1", "unit": "nM"},
      {"measurement": "binding result", "setting": "bovine serum albumin", "result": "no binding"},
      {"measurement": "Kd", "setting": "human complement C5 [5]", "result": 1.18, "unit": "nM"},
      {"measurement": "Kd", "setting": "human complement C5 [4]", "result": 1.43, "unit": "nM"}
    ]},
    {"binder": "B6", "values": [
      {"measurement": "Kd", "setting": "human complement C5 [5]", "result": 2.34, "unit": "nM"}
    ]},
    {"binder": "B7", "values": [
      {"measurement": "IC50", "setting": "human complement C5 [1]", "result": "~30", "unit": "nM"}
    ]},
    {"binder": "B8", "values": [
      {"measurement": "Kd", "setting": "human complement C5 [7]", "result": 0.9, "unit": "nM"}
    ]},
    {"binder": "B9", "values": [
      {"measurement": "Kd", "setting": "human complement C5 [5]", "result": 2.01, "unit": "nM"}
    ]},
    {"binder": "B10", "values": [
      {"measurement": "Kd", "setting": "human complement C5 [2]", "result": 1.38, "unit": "nM"},
      {"measurement": "Kd", "setting": "human complement C5 [4]", "result": 1.13, "unit": "nM"}
    ]},
    {"binder": "B11", "values": [
      {"measurement": "Kd", "setting": "human complement C5 [5]", "result": 3.05, "unit": "nM"}
    ]},
    {"binder": "B12", "values": [
      {"measurement": "Kd", "setting": "human complement C5 [5]", "result": 2.28, "unit": "nM"}
    ]},
    {"binder": "B13", "values": [
      {"measurement": "Kd", "setting": "human complement C5 [5]", "result": 1.87, "unit": "nM"}
    ]},
    {"binder": "B14", "values": [
      {"measurement": "Kd", "setting": "human complement C5 [5]", "result": 1.75, "unit": "nM"}
    ]},
    {"binder": "B15", "values": [
      {"measurement": "Kd", "setting": "human complement C5 [2]", "result": 0.63, "unit": "nM"},
      {"measurement": "Kd", "setting": "human complement C5 [4]", "result": 0.776, "unit": "nM"}
    ]},
    {"binder": "B16", "values": [
      {"measurement": "Kd", "setting": "human complement C5 [5]", "result": 2.58, "unit": "nM"}
    ]},
    {"binder": "B17", "values": [
      {"measurement": "IC50", "setting": "human complement C5 [1]", "result": 17, "unit": "nM"}
    ]},
    {"binder": "B18", "values": [
      {"measurement": "Kd", "setting": "human complement C5 [5]", "result": 1.83, "unit": "nM"}
    ]}
  ]
}
